Test results from PMC7463542, “Automated GMP-Compliant Production of [^68Ga]Ga-DO3A-Tuna-2 for PET Microdosing Studies of the Glucagon Receptor in Humans” (Pharmaceuticals, 2020).

Assays:
[1] = Storage stability of the aqueous precursor solution at −20 °C (formation of oxidized product); format: physicochemical; conditions: at least six months
[2] = Safety, pharmacology, and toxicology studies in animals; format: in vivo
[3] = format: physicochemical
Protocol: The aseptic production was conducted in a GMP grade A workstation (unidirectional laminar airflow workbench (LAFW)) situated in a cleanroom with GMP grade B air quality. The ^68Ge/^68Ga generator (GalliaPharm®, Eckert & Ziegler, Berlin, Germany) and Modular PharmLab labeling synthesis platform (Eckert & Ziegler Eurotope, Berlin, Germany) were placed in the LAFW. A high-performance liquid chromatography system (LaChrom, Hitachi, VWR) consisting of an L-2130 pump, UV detector (L-2400), and radiation flow detector (Bioscan) coupled in series was used for product quality control. Separation of the analytes was accomplished using an analytical column with a stationary reversed phase (C-4; Vydac-C4; 50 × 4.6 mm; particle size: 3 µm). The conditions were as follows: A = 10 mM trifluoroacetic acid in water; B = 100% acetonitrile (MeCN) with 10 mM TFA with UV-detection at 220 nm; linear gradient elution: 0 min at 24% B, 0–8 min from 24 to 45% B, 8–10 min at 45% B, 10–15 min at 24% B; flow rate was 2.0 mL/min. Data acquisition and handling were performed using the EZChrom Elite Software Package (version 1.3).
Quality control on the chemical purity, radiochemical purity, and determination of the peptide concentration was performed using UV-Radio-HPLC. The development and validation of the method were conducted using two different reversed-phase columns Vydac-C4 and Aeris-C4 with mobile phases of 0.1% TFA in water as the A mobile phase and 0.1% TFA in acetonitrile as the B mobile phase. The gradient of B increased from 25% to 40% within 30 min for Aeris-4 and B increased from 24 to 45% within 8 min, followed by 2 min of isocratic elution. The recovery of radioactivity from the analytical column was investigated, in order to confirm that no radioactive product or impurities were left on the column, by collecting HPLC effluent with and without an analytical column and measuring the radioactivity. The tests were performed for both the product ([^68Ga]Ga-DO3A-VS-Cys^40-Tuna-2) and free ^68Ga(III). Specificity, linearity, and precision as repeatability were validated for both UV- and radio-detectors.
Three successful sequential productions were performed for the manufacturing validation. A fraction of pre-determined volume was kept for the subsequent determination of ^68Ge content and solvent residual content. The stability of the product at room temperature was monitored by UV-radio-HPLC for 2 h.

[4] = Sensitivity of the labelled product to (radiolytic) oxidation; format: physicochemical; conditions: compared with [^68Ga]Ga-DO3A-VS-Cys^40-Exendin-4; labeling conditions
[5] = target: T1, glucagon receptor (GCGR) (Homo sapiens, UniProt P47871); format: in vivo, humans
T1 construct: strong liver uptake expected due to the high glucagon receptor expression on hepatocytes; from tissue; host or cells: liver (hepatocytes) of living human subjects with type 2 diabetes
From the text: [^68Ga]Ga-DO3A-VS-Cys^40-Tuna-2 PET/CT was used for assessing the hepatic GCGR receptor density and availability within a phase Ib, open-label study investigating the receptor occupancy of a dual GLP1/GCG agonist (ClinicalTrials.gov: NCT03350191). The results of the full receptor occupancy study, as well as the human biodistribution and dosimetry of [^68Ga]Ga-DO3A-VS-Cys^40-Tuna-2, will be reported separately. The study was approved by the Swedish Medical Products Agency and the regional ethical review board (Dnr 2017/395; EudraCT nr. 2017-001789-23).
Briefly, individuals with T2D were enrolled in the study and signed informed consent. They (n = 13) were placed in the supine position with the liver in the 20 cm axial PET field of view of a Discovery MI PET/CT scanner (GE Healthcare). [^68Ga]Ga-DO3A-VS-Cys^40-Tuna-2 (target dose 0.5 MBq/kg, <0.2 µg/kg peptide) was administered intravenously as a bolus followed by a 60 min dynamic PET acquisition in list-mode. The PET list mode data were reconstructed into 30 frames (12 × 10, 6 × 30, 5 × 120, 5 × 300, 2 × 600 s) using an iterative VPFX-S algorithm (3 iterations, 3 subsets, matrix 256 × 256, Z-axis post-filter 3 mm) with all relevant corrections performed.

[6] = tested on: glucagon receptor (GCGR); conditions: in vitro and in vivo in rats and non-human primates; 16 (previous studies); cited from earlier work
From the text: The manufacturing process of [^68Ga]Ga-DO3A-VS-Cys^40-Tuna-2 was automated for clinical use to meet the radiation safety and good manufacturing practice (GMP) requirements. Methods: The automated synthesis platform (Modular-Lab PharmTrace, Eckert & Ziegler, E ...

T1 sequence (P47871 26-477): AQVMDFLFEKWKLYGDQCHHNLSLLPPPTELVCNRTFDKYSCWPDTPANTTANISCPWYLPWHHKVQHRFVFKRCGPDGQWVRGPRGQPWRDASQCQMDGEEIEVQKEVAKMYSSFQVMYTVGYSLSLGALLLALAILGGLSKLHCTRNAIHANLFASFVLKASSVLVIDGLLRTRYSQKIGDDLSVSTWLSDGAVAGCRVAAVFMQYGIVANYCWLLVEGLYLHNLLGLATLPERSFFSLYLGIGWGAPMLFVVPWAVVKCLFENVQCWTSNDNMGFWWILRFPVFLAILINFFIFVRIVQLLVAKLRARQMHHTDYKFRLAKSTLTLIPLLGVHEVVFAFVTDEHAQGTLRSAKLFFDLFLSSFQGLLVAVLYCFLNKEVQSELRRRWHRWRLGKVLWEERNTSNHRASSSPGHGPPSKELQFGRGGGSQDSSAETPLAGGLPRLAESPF

## TzaD-SerQGTFTSDYSKQLDE*QRAK*EFIEWLLATGPESGAPPPS (sidechain bridge or staple) [DO3A-VS-Cys^40-Tuna-2, unlabelled precursor (GMP-grade API starting material): Tuna-2 peptide coupled to DOTA bifunctional chelator via Cys40 and vinyl sulfone linker]
[1]
  Formation of oxidized product upon storage: no formation of the oxidized product was detected
[2]
  Toxicity related to the substance: no DO3A-VS-Cys^40-Tuna-2 related toxicity

## TzaD-SerQGTFTSDYSKQLDE*QRAK*EFIEWLLATGPESGAPPPS (sidechain bridge or staple) [[^68Ga]Ga-DO3A-VS-Cys^40-Tuna-2, ^68Ga-labeled peptide-based PET imaging agent targeting GCGR; 39-residue Tuna-2 coupled to DOTA chelator via Cys40 and vinyl sulfone linker]
[3]
  Stability: radiochemical purity 2 h postproduction: 97.9 ± 0.9%
[3]; ambient temperature, Figure 5, as stated in discussion
  RCP at ambient temperature for at least 2 h: over 95%
[3]; formulated product, ambient temperature, UV-radio-HPLC
  Time for which the product was stable at ambient temperature: at least 2 h
[3]; formulated product, room temperature, radioactivity traces of Figure 5
  Radiochemical purity (RCP) after production, 1 h and 2 h post-production: over 98%
[4]
  Sensitivity to oxidation: less sensitive to the oxidation
[5]; T2D patients, IV bolus, baseline examinations, 60 min dynamic PET
  Binding in the liver: strong binding in the liver
[5]; in vivo, iv
  Plasma kinetics: rapid plasma kinetics
[6]
  Binding to the glucagon receptor (GCGR): high-affinity specific binding
